Reference: patent publication US6103514A, “Protease” (The University of Tokyo, priority 1997, dated 2000)

Assays:
26·29 kDa protease = conditions: stated under Prior Art; cited from earlier work
[1] = Assay of protease activity with fluorescent peptidyl-MCA substrates; assay type: biochemical; conditions: for Hydrolysis of Z-Arg-Arg-MCA (in words): substrate Z-Arg-Arg-MCA
Procedure: Table 2 lists specific activities of 26·29 kDa protease, cathepsin B from flesh fly and cathepsin L from flesh fly to various substrates, which were measured in terms of their hydrolytic activities against the fluorescence-attached synthetic substrates. The numeral represents the mass of fluorescent synthetic substrate hydrolyzed by a unit weight of protease, or a specific activity of that enzyme. For the numerals of Table, one unit of activity is defined as a weight of enzyme necessary for hydrolyzing 1 μmol of substrate in 10 minutes. "ND" in Table represents no result because the test not being made. Sequence listing numbers for sequences in Table 2 are: SEQ ID NO:100 and SEQ ID NO:101.
Assay of enzymatic activity was performed using 0.2 ml of 5 mM sodium phosphate (pH 6.0) containing 0.05 mM peptidyl-MCA substrate, 100 mM NaCl, 1 mM EDTA, 5 mM 2-mercaptoethanol, and 10 μl of the test fraction. The solution was incubated at 27° C. for 10 minutes, to which was added 0.2 ml of 20% aqueous solution of acetic acid to stop the reaction. Fluorescence at 380 nm and 460 nm was observed. The amount necessary for hydrolyzing 1 μmol substrate in 10 minutes under the above condition was defined as one unit of protease activity.
For purification of 26·29 kDa protease, carbobenzoxy-Arg-Arg-MCA was used as the substrate. Further, for determination of substrate specificity, various peptidyl-MCAs were used.

[2] = cited from earlier work
[3] = Assay of protease activity with fluorescent peptidyl-MCA substrates; assay type: biochemical; conditions: for Recovery of protease activity after treatment to restore activity: condition effective for recombinant human cathepsin L precursor, natural protease denatured first
[4] = substrate Suc-Ala-Ala-Pro-Phe-MCA
[5] = substrate Suc-Leu-Leu-Val-Tyr-MCA
[6] = substrate z-Arg-Arg-MCA, 1 unit hydrolyzes 1 μmol substrate in 10 minutes

26·29 kDa protease of flesh fly (Sarcophaga peregrina), isolated and purified from body fluid cells (enzyme)
Activity (units/mg enzyme) (units/mg enzyme) (Suc-Ala-Ala-Pro-Phe-MCA): 0.01 | Activity (units/mg enzyme) (units/mg enzyme) (Z-Arg-Arg-MCA): 4.29 | Activity (units/mg enzyme) (units/mg enzyme) (Pyr-Gly-Arg-MCA): 0.03 | Activity (units/mg enzyme) (units/mg enzyme) (Boc-Phe-Ser-Arg-MCA): 0.15 | Activity (units/mg enzyme) (units/mg enzyme) (Boc-Val-Leu-Lys-MCA): 0.61 | Activity (units/mg enzyme) (units/mg enzyme) (Suc-Leu-Leu-Val-Tyr-MCA): 0.03 | Activity (units/mg enzyme) (units/mg enzyme) (Suc-Ala-Pro-Phe-MCA): 0.01 | Activity (units/mg enzyme) (units/mg enzyme) (Z-Phe-Arg-MCA): 2.25

CC(C)C[C@H](NC(=O)[C@H]1O[C@@H]1C(=O)O)C(=O)NCCCCN=C(N)N [E64]
Inhibition of protease activity (26·29 kDa protease): inhibited

cathepsin B from flesh fly (enzyme)
Activity (units/mg enzyme) (units/mg enzyme) (Suc-Ala-Ala-Pro-Phe-MCA): 0.5 | Activity (units/mg enzyme) (units/mg enzyme) (Z-Arg-Arg-MCA): 0.86 | Activity (units/mg enzyme) (units/mg enzyme) (Pyr-Gly-Arg-MCA): 0.29 | Activity (units/mg enzyme) (units/mg enzyme) (Suc-Leu-Leu-Val-Tyr-MCA): 18.7 | Activity (units/mg enzyme) (units/mg enzyme) (Suc-Ala-Pro-Phe-MCA): 0.83 | Activity (units/mg enzyme) (units/mg enzyme) (Z-Phe-Arg-MCA): 20.6

cathepsin B: cathepsin B from flesh fly, comparison cysteine protease
Activity (units/mg enzyme) ([1]; substrate Pyr-Gly-Arg-MCA): 0.29 units/mg enzyme | Activity (units/mg enzyme) [1, 4]: 0.5 units/mg enzyme | Activity (units/mg enzyme) ([1]; substrate Suc-Ala-Pro-Phe-MCA): 0.83 units/mg enzyme | Activity (units/mg enzyme) [1, 5]: 18.7 units/mg enzyme | Hydrolysis of Z-Arg-Arg-MCA (in words) [1]: scarcely hydrolyzes | Activity (units/mg enzyme) [1, 6]: 0.86 units/mg enzyme | Activity (units/mg enzyme) ([1]; substrate z-Phe-Arg-MCA): 20.6 units/mg enzyme | Hydrolysis of Suc-Leu-Leu-Val-Tyr-MCA (in words, literature) ([2]; substrate Suc-Leu-Leu-Val-Tyr-MCA, Kurata et al. 1992): hydrolyzes | Hydrolysis of Z-Arg-Arg-MCA (in words, literature) ([2]; substrate Z-Arg-Arg-MCA, Takahashi et al. 1993): can not hydrolyze

cathepsin L from flesh fly (enzyme)
Activity (units/mg enzyme) (units/mg enzyme) (Z-Arg-Arg-MCA): 0.17 | Activity (units/mg enzyme) (units/mg enzyme) (Suc-Leu-Leu-Val-Tyr-MCA): 0.04 | Activity (units/mg enzyme) (units/mg enzyme) (Z-Phe-Arg-MCA): 180

cathepsin L: cathepsin L from flesh fly, comparison cysteine protease
Activity (units/mg enzyme) [1, 5]: 0.04 units/mg enzyme | Hydrolysis of Z-Arg-Arg-MCA (in words) [1]: practically does not hydrolyze | Activity (units/mg enzyme) [1, 6]: 0.17 units/mg enzyme | Activity (units/mg enzyme) ([1]; substrate z-Phe-Arg-MCA): 180 units/mg enzyme

B1: 26.multidot.29 kDa protease: bimolecular cysteine protease of 26 kDa and 29 kDa subunits, purified from body fluid cells of flesh fly (Sarcophaga peregrina) (protein)
chain 1: TNPPRWDPNYIVKGTLYIPYAEIAEPFYAWYDKNTRRSRIDYYGGMVKTYQLANEHPFGTSLKLAPITTKSELNKVTCLQLNGTSEDPVQVQAILPNAKDFKLIGTETFLGFNCDKFRLEETIGDKKNVYTLWVRYKKSPHYPASRMPIPVRYEMRGYNTLLGSHYDHYYLDYDSYDHDDIPNEVFELDDNMECMPFPGPGK
chain 2: NGGNLVRLSQQALIDCSWEYGNNGCDGGEDFRAYKWMMEMGGVPTEEEYGPYLGQDGYCHAKNVSLVAPITGFFNVTPNDPMALKIALLKHGPISVAIDASPKTFSFYSHGVYYEPTCKNGLDELDHAVLAVGYGTINGEDYWLVKNSWSTYWGNDGYILMSARKNNCGVMTMPTYVEM
Activity (units/mg enzyme) ([1]; substrate Boc-Phe-Ser-Arg-MCA): 0.15 units/mg enzyme | Activity (units/mg enzyme) ([1]; substrate Boc-Val-Leu-Lys-MCA): 0.61 units/mg enzyme | Activity (units/mg enzyme) ([1]; substrate Pyr-Gly-Arg-MCA): 0.03 units/mg enzyme | Activity (units/mg enzyme) [1, 4]: 0.01 units/mg enzyme | Activity (units/mg enzyme) ([1]; substrate Suc-Ala-Pro-Phe-MCA): 0.01 units/mg enzyme | Activity (units/mg enzyme) [1, 5]: 0.03 units/mg enzyme | Hydrolysis of Z-Arg-Arg-MCA (in words) [1]: well hydrolyzes | Hydrolysis of Z-Phe-Arg-MCA (in words) ([1]; substrate Z-Phe-Arg-MCA): has also a hydrolyzing activity | Activity (units/mg enzyme) [1, 6]: 4.29 units/mg enzyme | Activity (units/mg enzyme) ([1]; substrate z-Phe-Arg-MCA): 2.25 units/mg enzyme | Recovery of protease activity after treatment to restore activity [3]: no positive effects

B2: recombinant homologue of 29 kDa subunit: recombinant protein of 29 kDa subunit expressed in E. coli, recovered as inclusion bodies (protein)
chain: NGGNLVRLSQQALIDCSWEYGNNGCDGGEDFRAYKWMMEMGGVPTEEEYGPYLGQDGYCHAKNVSLVAPITGFFNVTPNDPMALKIALLKHGPISVAIDASPKTFSFYSHGVYYEPTCKNGLDELDHAVLAVGYGTINGEDYWLVKNSWSTYWGNDGYILMSARKNNCGVMTMPTYVEM
Recovery of protease activity after treatment to restore activity [3]: could not recover its activity | Protease activity towards Z-Arg-Arg-MCA of recombinant protein expressed in E. coli ([3]; homogenate or inclusion bodies from expressing E. coli cells): only as much as the control E. coli cells
